Assay results as given in US20160075790A1 (Bristol-Myers Squibb, published 2016).
Numbering of substitutions follows the chain as printed. Values joined by “and” are separate entries in the source; they are usually repeats but may differ in a detail not shown here. Equal values may be shown once.

T1: human isoleucine zipper-CD40L (IZ-hCD40L) (human, UniProt P29965 113-261)
T1 sequence: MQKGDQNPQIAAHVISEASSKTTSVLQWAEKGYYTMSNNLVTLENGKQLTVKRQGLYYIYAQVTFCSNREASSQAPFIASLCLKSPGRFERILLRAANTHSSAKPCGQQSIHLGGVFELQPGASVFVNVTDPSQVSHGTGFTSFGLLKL

T2: human CD40L, membrane-bound on cells (human, UniProt P29965 1-261)
T2 sequence: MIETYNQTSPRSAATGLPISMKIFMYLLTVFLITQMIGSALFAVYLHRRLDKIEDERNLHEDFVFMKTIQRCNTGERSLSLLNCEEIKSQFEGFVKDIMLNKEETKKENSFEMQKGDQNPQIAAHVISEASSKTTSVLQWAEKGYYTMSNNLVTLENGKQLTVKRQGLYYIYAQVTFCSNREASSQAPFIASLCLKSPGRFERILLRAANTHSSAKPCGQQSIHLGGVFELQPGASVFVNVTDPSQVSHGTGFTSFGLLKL

B1: BMS2h-116-1314 (other)
VL: DIQMTQSPSSLSASVGDRVTITCRASQPIGPDLLWYRQKPGKAPKLLIYQTSILRSGVPSRFSGSGSETDFTLTISNLQPEDFATYYCQQYWAFPVTFGQGTKVVIKR
B2: BMS2h-116-1320 (other)
VL: B1 VL with S14Y, R37Q, T85K
B3: BMS2h-116-1319 (other)
VL: B1 VL with R37Q, L54M, A93T, V105E
B4: BMS2h-503 (other)
VL: DIQMTQSPSSLSASVGDRVTITCRASHHIQRYLSWYQQKPGKAPKLLILWGSQLQSGVPSRFSGSGSGTDFTLTISSLQPEDFATYYCGQWWAPPPTFGQGTKVEIKR
B5: BMS2h-503-1 (other)
VL: B4 VL with P96Q
B6: BMS2h-503-2 (other)
VL: B4 VL with H28D, P96Q
B7: BMS2h-494-4 (other)
VL: EIQMTQSPSSLSASVGDRVTMTCRASQSIDKDLEWYQQKPGKAPRLLIYSSSWLQRGVPSRFSGSGSGTDFTLTISSLRPEDFATYYCQQYFQYPPTLGQGTKVEIKR
B8: BMS2h-494-6 (other)
VL: B7 VL with E1D, S9P, M21I, R79Q, Y87H, L98F
B9: BMS2h-437-4 (other)
VL: DIQMTQSPSSLSASVGDRVTITCRASTPIGTMLDWYQQKPGKAPKLLIGHSSWLQSGVPSRFSGCGSGTDFTLTISSLQPEDFATYYCGQHVRPPATFGQGTKVEIKR
B10: BMS2h-572-11 (other)
VH: EVQLLESGGGLVQPGGSLRLSCAASGFTFNWQLMGWVRQAPGKGLEWVSGIEGPGDVTYYADSVKGRFTISRDNSKNTLYLQMNSLRAEDTAVYYCVKVGKESNSDYRGQGTQVTVSS
B11: BMS2h-572-614 (other)
VH: B10 VH with E102D, S103A, N104K, Q113L
B12: BMS2h-572-619 (other)
VH: B10 VH with E102D, N104R, Q113L
B13: BMS2h-572-608 (other)
VH: B10 VH with Q32E, V37A, Q113L
B14: BMS2h-572-623 (other)
VH: B10 VH with N104S, Q113L
B15: BMS2h-572-610 (other)
VH: B10 VH with E102D, N104K, Q113L
B16: BMS2h-572-630 (other)
VH: B10 VH with N30K, E102D, S103A, N104K, Q113L
B17: BMS2h-572-617 (other)
VH: B10 VH with K101R, E102D, N104K, Q113L
B18: BMS2h-572-14 (other)
VH: B10 VH with S75T, Q113L
B19: BMS2h-572-616 (other)
VH: B10 VH with N104K, Q113L
B20: BMS2h-572-622 (other)
VH: B10 VH with E102D, N104T, Q113L
B21: BMS2h-572-15 (other)
VH: B10 VH with Q3R, T28N, V37I, V97A, Q113L
B22: BMS2h-572-604 (other)
VH: B10 VH with N30K, Q113L
B23: BMS2h-572-631 (other)
VH: B10 VH with N30K, E102D, N104R, Q113L
B24: BMS2h-719-2 (other)
VH: EVQLLESGGGLVQPGGSLRLSCAASGFTFKRYEMMWVRQAPGKGLEWVSSISSDGSFTYYADSVKGRFTISRDNSKNTLYLQMNSLRAEDTAVYYCAEPFTEFDYWGHGTLVTVSS
B25: BMS2h-719-225 (other)
VH: B24 VH with K30N, R31T, M35Q
B26: BMS2h-719-19 (other)
VH: B24 VH with L11W, E98D, H108Q
B27: BMS2h-719-13 (other)
VH: B24 VH with S75T, E98D, F103L
B28: BMS2h-719-202 (other)
VH: B24 VH with R31K
B29: BMS2h-719-226 (other)
VH: B24 VH with K30N, R31K, V37A, K76R
B30: BMS2h-719-17 (other)
VH: B24 VH with M35S, E98D, F103I, H108Q, L111Q
B31: BMS2h-719-12 (other)
VH: B24 VH with I70V, E98D, H108Q
B32: BMS2h-492-3 (other)
VL: DIQMTQSPSSLSATVGDRVTITCRASQAIETNLEWYQQKPGKAPKLLIYDASMLQSGVPSRFSGSGSGTDFTLTISSLQPEDFATYYCQQYDAYPPTFGQGTKVEIKR
B33: BMS2h-492-4 (other)
VL: B32 VL with T14S, T31H, S65R

molecular target: T1, human isoleucine zipper-CD40L …; assay: cell-based or functional assay

| hIZCD40L-driven Human B Cell Proliferation EC50 | Binder |
| --- | --- |
| 41 nM | B1 |
| 20 nM | B2 |
| 180 nM | B3 |
| 4200 nM | B4 |
| 24 nM | B5 |
| 44 nM | B6 |
| 590 nM | B7 |
| 2000 nM | B8 |
| 203 nM | B9 |
| 140 nM | B10 |
| 93 nM | B11 |
| 90 nM | B12 |
| 96 nM | B13 |
| 181 nM and 261 nM | B14 |
| 109 nM | B15 |
| 103 nM | B16 |
| 157 nM and 189 nM | B17 |

| hIZCD40L-driven Human B Cell Proliferation EC50 | Binder |
| --- | --- |
| 134 nM | B18 |
| 204 nM and 340 nM | B19 |
| 301 nM and 293 nM | B20 |
| 168 nM | B21 |
| 254 nM and 354 nM | B22 |
| 108 nM | B23 |
| 82 nM | B24 |
| 253 nM and 198 nM | B25 |
| 138 nM | B26 |
| 50 nM | B27 |
| 29 nM | B28 |
| 164 nM and 247 nM | B29 |
| 132 nM | B30 |
| 358 nM | B31 |
| 1100 nM | B32 |
| 1700 nM | B33 |

molecular target: T2, human CD40L, membrane-bound on cells; assay: cell-based or functional assay

| CHO-hCD40L-driven DC Activation IL-12 EC50 [nM] | T-B cell MLR EC50 [µM] | CHO-hCD40L-driven Human B Cell Proliferation EC50 | Binder |
| --- | --- | --- | --- |
| 664 | 1.69 |  | B1 |
| 32 | 0.191 | 0.138 µM | B2 |
|  |  | > 7 µM | B3 |
|  |  | > 7 µM | B4 |
| 756 |  | 2.3 µM | B5 |
| 1560 |  | 3 µM | B6 |
|  |  | > 7 µM | B7 |
|  |  | > 7 µM | B8 |
| 1330 |  | > 7 µM | B9 |
|  |  | > 7 µM | B10 |
| 135 | > 7 |  | B11 |
| 188 | > 7 |  | B12 |
| 152 | > 7 |  | B13 |
| 280 | > 7 |  | B14 |
| 207 | > 7 |  | B15 |
| 246 |  |  | B16 |
| 338 | > 7 |  | B17 |

| CHO-hCD40L-driven DC Activation IL-12 EC50 [nM] | T-B cell MLR EC50 [µM] | CHO-hCD40L-driven Human B Cell Proliferation EC50 | Binder |
| --- | --- | --- | --- |
| 882 |  | > 7 µM | B18 |
| 608 | > 7 |  | B19 |
| 281 | > 7 |  | B20 |
| 876 |  | > 7 µM | B21 |
| 387 |  | > 0.7 µM | B22 |
| 230 |  |  | B23 |
| 196 |  | > 7 µM | B24 |
| 176 |  |  | B25 |
| 184 |  |  | B26 |
| 219 |  |  | B27 |
| 79 |  |  | B28 |
| 812 |  |  | B29 |
| 113 |  | 0.236 µM and 0.268 µM | B30 |
| 266 |  |  | B31 |
|  |  | > 7 µM | B32 |
|  |  | > 7 µM | B33 |
